These results are taken from article PMC7756681, “Functional Hybrid Molecules for the Visualization of Cancer: PESIN‐Homodimers Combined with Multimodal Molecular Imaging Probes for Positron Emission Tomography and Optical Imaging: Suited for Tracking of GRPR‐Positive Malignant Tissue” (Chemistry (Weinheim an Der Bergstrasse, Germany), 2020).

A short description of series [1]: LogD determination of 68Ga-labeled MIUs and bioconjugates (water/1-octanol partition, γ-counter). To be noted: pH 7.4. Here is the method: Following the synthesis of the MIUs 6 a–13 a and the corresponding bioconjugates 6–13, the radiolabeling efficiency of the compounds with ^68Ga^3+ was investigated. […] In the following, we investigated the lipophilicity of the MIUs [^68Ga]6 a–[^68Ga]13 a and their bioconjugates [^68Ga]6–[^68Ga]13 (Table 1 and Figure 2 C,D).
A solution of the respective multimodal imaging unit (MIU) 6a – 13a (5 nmol) or multimodal imaging agent 6 - 14 (5 nmol) in H2O (Tracepur quality, 1mM) was added to 90 - 120 MBq of [68Ga]GaCl in a solution obtained by fractioned elution of an IGG 68Ge/68Ga generator system […]
with HCl (0.1 M, 1.6 mL) and subsequent titration to pH 3.5 – 4.2 by addition of sodium acetate solution (1.25 M, 50 – 75 µL). All labeling experiments were performed by addition of 2 mg ascorbic acid to suppress radiolysis-induced product fragmentation. In the labeling experiments of the MIUs 6a – 13a, 1 - 4 mg TCEP x HCl were added and the pH was adjusted to 3.5 – 4.2 by addition of sodium acetate solution (1.25 M). After reaction for 10 min at 45°C, the reaction mixtures were analyzed by analytical radio-HPLC.
For 68Ga-6/6a – 68Ga-13/13a, the water/1-octanol partition coefficient (log ) was determined by […]
adding 5 µL of the respectively 68Ga-labeled compound (0.8 – 1.2 MBq) to a mixture of phosphate buffer (0.05 M, pH 7.4, 795 µL) and 1-octanol (800 µL). The mixtures were intensively shaken for 5 minutes on a vibrating plate. After subsequent centrifugation at 13 000 rpm for 5 min, 125 µL were taken from each phase and measured in a γ-counter. The logD values were calculated from three or four independent experiments, each performed in triplicate.
For 14, the water/1-octanol partition coefficient (logD) was determined by semipreparative HPLC.
For this purpose, 10 µL solution (c = 5 x 10-4 mol/L) of the substance were added to a mixture of 1 mL 1-octanol and 990 µL phosphate buffered solution (0.05 M, pH 7.4) and the mixture was vigorously shaken for 5 minutes. After centrifugation, the phases were separated and both phases were analyzed by semipreparative HPLC. The logD was determined by three separate measurements, each experiment performed in triplicate.
(§1) Competitive receptor binding assay
(§2) Stably GRPR-transfected Human Embryonic Kidney 293 cells (HEK-GRPR) were cultured at 37°C in Dulbecco’s Modified Eagle’s Medium (DMEM, high glucose, GlutaMax-I, 500 mL) […]
(§3) a humidified atmosphere containing 5 % CO2. The medium was exchanged every two or three days and cells were split at >75 % confluence. In vitro binding affinities were determined via competitive displacement experiments which were performed at least trice, each experiment performed in triplicate. A Millipore Multiscreen punch kit and Millipore 96 well filter plates (pore size 1.2 µm) were used. The plates were incubated with PBS/BSA (1%) solution (each well 200 µL) for one hour before use. HEK-GRPR cells were harvested and suspended carefully in Opti- […]

Series [2] deals with T1, gastrin-releasing peptide receptor (GRPR) (Homo sapiens, UniProt P30550).
T1 construct: host or cells: Human Embryonic Kidney 293 cells (HEK-GRPR)
As to the kind of experiment: Competitive displacement assay on stably GRPR-transfected HEK cells using [125I]-Tyr4-bombesin. The format is binding. To be noted: [125I]-Tyr4-bombesin as competitor, 1 h, ambient temperature, read-out: IC50 (GRPR affinity). Here is the method: as §1, §2
as §3, with “Opti-MEM I (GlutaMAX I) medium. 50 µL of a cell suspension containing […] were seeded in each well. To this, a total volume of 50 µL was added to each well, containing 25 µL (0.012” for “Opti-”
The competitor was added in 11 increasing concentrations ranging from 0.25 – 500 nM for 6 – […]
binding of the radioligand. After one hour of incubation at ambient temperature, the solution was filtrated and the filters were washed with cold PBS (3 times). The filters were collected and […]

Series [3] in a line: Photophysical properties (absorption and emission spectra in PBS). The format is physicochemical. To be noted: for Log ϵ / λ max / Stokes shift: 1×10^−5 mol L^−1. From the text: After studying the chemical and biological properties of the MIUs and their corresponding multimodal imaging agents, the photophysical properties of the substances were finally under investigation. Here, we found no significant decrease or shift of the optical and fluorescent characteristics of the bioconjugates compared to the MIUs (Table 2).
Fig. S27 Normalized absorption and emission spectra of 7 (left) and 7a (right), recorded in PBS
at a concentration of c = 1.0 x 10-5 mol/L, emission wavelength stated in the graph (bottom, left
Fig. S28 Normalized absorption and emission spectra of 8 (left) and 8a (right), recorded in PBS
Fig. S29 Normalized absorption and emission spectra of 9 (left) and 9a (right), recorded in PBS […]
Fig. S30 Normalized absorption and emission spectra of 10 (left) and 10a (right), recorded in
PBS at a concentration of c = 1.0 x 10-5 mol/L, emission wavelength stated in the graph (bottom,
Fig. S31 Normalized absorption and emission spectra of 11 (left) and 11a (right), recorded in
Fig. S32 Normalized absorption and emission spectra of 12 (left) and 12a (right), recorded in […]

The mark [4] stands for this setting: 1×10^−5 mol L^−1, excitation wavelength λex=400 nm.

T1 sequence (P30550 whole entry, species assumed): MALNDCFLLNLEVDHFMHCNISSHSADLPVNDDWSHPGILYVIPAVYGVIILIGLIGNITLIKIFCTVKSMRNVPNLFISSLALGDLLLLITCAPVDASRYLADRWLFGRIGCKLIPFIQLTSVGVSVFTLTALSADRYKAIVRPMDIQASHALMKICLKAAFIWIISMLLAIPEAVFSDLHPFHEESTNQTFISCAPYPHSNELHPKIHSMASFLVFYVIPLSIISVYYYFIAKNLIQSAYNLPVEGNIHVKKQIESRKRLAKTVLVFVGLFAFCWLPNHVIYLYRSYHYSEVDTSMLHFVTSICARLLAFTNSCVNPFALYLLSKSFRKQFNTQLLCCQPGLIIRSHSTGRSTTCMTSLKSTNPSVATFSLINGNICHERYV

As for `CSCC[C@H](NC(=O)[C@H](CC(C)C)NC(=O)[C@H](Cc1c[nH]cn1)NC(=O)CNC(=O)[C@@H](NC(=O)[C@H](C)NC(=O)[C@H](Cc1c[nH]c2ccccc12)NC(=O)[C@H](CCC(N)=O)NC(=O)CCOCCOCCOCCOCCNC(=O)CON=Cc1ccc(C(=O)NCCCN(CCCNC(=O)c2ccc(C=NOCC(=O)NCCOCCOCCOCCOCCC(=O)N[C@@H](CCC(N)=O)C(=O)N[C@@H](Cc3c[nH]c4ccccc34)C(=O)N[C@@H](C)C(=O)N[C@H](C(=O)NCC(=O)N[C@@H](Cc3c[nH]cn3)C(=O)N[C@@H](CC(C)C)C(=O)N[C@@H](CCSC)C(N)=O)C(C)C)cc2)CC(=O)N[C@H](CSC2CC(=O)N(CCN3C(=O)CC(SC[C@H](NC(=O)[C@H](CCCCNS(=O)(=O)c4cccc5c(N(C)C)cccc45)NC(=O)CC[C@H](C(=O)O)N4CCN(CC(=O)O)CCN(CC(=O)O)CC4)C(N)=O)C3=O)C2=O)C(=O)NCCOCCOCC(N)=O)cc1)C(C)C)C(N)=O` (stereo partly shown) [Compound 9], the pH-dependent lipophilicity (logD) – broadly, lipophilicity at a set pH, counting ionised and neutral species – in series [1] is -1.59 ± 0.06. The IC50 (as a rule, the concentration that gives 50% inhibition) in series [2] came to 26.2 ± 0.89 nM. In series [3] (setting [4]), this molecule returned a λem of 540 nm.
`CSCC[C@H](NC(=O)[C@H](CC(C)C)NC(=O)[C@H](Cc1c[nH]cn1)NC(=O)CNC(=O)[C@@H](NC(=O)[C@H](C)NC(=O)[C@H](Cc1c[nH]c2ccccc12)NC(=O)[C@H](CCC(N)=O)NC(=O)CCOCCOCCOCCOCCNC(=O)CON=Cc1ccc(C(=O)NCCCN(CCCNC(=O)c2ccc(C=NOCC(=O)NCCOCCOCCOCCOCCC(=O)N[C@@H](CCC(N)=O)C(=O)N[C@@H](Cc3c[nH]c4ccccc34)C(=O)N[C@@H](C)C(=O)N[C@H](C(=O)NCC(=O)N[C@@H](Cc3c[nH]cn3)C(=O)N[C@@H](CC(C)C)C(=O)N[C@@H](CCSC)C(N)=O)C(C)C)cc2)CC(=O)N[C@H](CSC2CC(=O)N(CCN3C(=O)CC(SC[C@H](NC(=O)[C@H](CCCCNc4ccc([N+](=O)[O-])c5nonc45)NC(=O)CC[C@H](C(=O)O)N4CCN(CC(=O)O)CCN(CC(=O)O)CC4)C(N)=O)C3=O)C2=O)C(=O)NCCOCCOCC(N)=O)cc1)C(C)C)C(N)=O` (stereo partly shown) [Compound 10]: the logD in series [1] was -1.42 ± 0.24. Besides, in series [3], the “Log ϵ” value is given as 4.10 M ^−1 cm^−1 and the λ max is on record as 490 nm. In addition, in series [3] (setting [4]), the λem amounted to 545 nm.
As to `CSCC[C@H](NC(=O)[C@H](CC(C)C)NC(=O)[C@H](Cc1c[nH]cn1)NC(=O)CNC(=O)[C@@H](NC(=O)[C@H](C)NC(=O)[C@H](Cc1c[nH]c2ccccc12)NC(=O)[C@H](CCC(N)=O)NC(=O)CCOCCOCCOCCOCCNC(=O)CON=Cc1ccc(C(=O)NCCCN(CCCNC(=O)c2ccc(C=NOCC(=O)NCCOCCOCCOCCOCCC(=O)N[C@@H](CCC(N)=O)C(=O)N[C@@H](Cc3c[nH]c4ccccc34)C(=O)N[C@@H](C)C(=O)N[C@H](C(=O)NCC(=O)N[C@@H](Cc3c[nH]cn3)C(=O)N[C@@H](CC(C)C)C(=O)N[C@@H](CCSC)C(N)=O)C(C)C)cc2)CC(=O)N[C@H](CSC2CC(=O)N(CCN3C(=O)CC(SC[C@H](NC(=O)[C@H](CCCC[n+]4c(C)cc(/C=C/C=C/c5ccc(N(C)C)cc5)cc4C)NC(=O)CC[C@H](C(=O)O)N4CCN(CC(=O)O)CCN(CC(=O)O)CC4)C(N)=O)C3=O)C2=O)C(=O)NCCOCCOCC(N)=O)cc1)C(C)C)C(N)=O` (stereo partly shown) [Compound 8], the logD in series [1] was -1.73 ± 0.2. Also, the half-inhibitory concentration (IC50) in series [2] came out at 15.5 ± 0.76 nM. In series [3], the “Log ϵ” value is reported as 4.16 M ^−1 cm^−1, the Stokes shift was 230 nm and the λ max was found to be 470 nm. Besides, in series [3] (setting [4]), the λem was found to be 700 nm.
In the case of `CSCC[C@H](NC(=O)[C@H](CC(C)C)NC(=O)[C@H](Cc1c[nH]cn1)NC(=O)CNC(=O)[C@@H](NC(=O)[C@H](C)NC(=O)[C@H](Cc1c[nH]c2ccccc12)NC(=O)[C@H](CCC(N)=O)NC(=O)CCOCCOCCOCCOCCNC(=O)CON=Cc1ccc(C(=O)NCCCN(CCCNC(=O)c2ccc(C=NOCC(=O)NCCOCCOCCOCCOCCC(=O)N[C@@H](CCC(N)=O)C(=O)N[C@@H](Cc3c[nH]c4ccccc34)C(=O)N[C@@H](C)C(=O)N[C@H](C(=O)NCC(=O)N[C@@H](Cc3c[nH]cn3)C(=O)N[C@@H](CC(C)C)C(=O)N[C@@H](CCSC)C(N)=O)C(C)C)cc2)CC(=O)N[C@H](CSC2CC(=O)N(CCN3C(=O)CC(SC[C@H](NC(=O)[C@H](CCCCNC(=O)c4ccccc4C4=c5cc6c7c(c5Oc5c4cc4c8c5CCCN8CCC4)CCC[N+]=7CCC6)NC(=O)CC[C@H](C(=O)O)N4CCN(CC(=O)O)CCN(CC(=O)O)CC4)C(N)=O)C3=O)C2=O)C(=O)NCCOCCOCC(N)=O)cc1)C(C)C)C(N)=O` (stereo partly shown) [Compound 13], the pH-dependent lipophilicity (logD) in series [1] is -0.81 ± 0.05. Also, the 50% inhibitory concentration (IC50) in series [2] worked out at 18 ± 0.86 nM. Besides, in series [3], the “Log ϵ” value is given as 4.57 M ^−1 cm^−1, the Stokes shift was found to be 20 nm and the λ max is recorded as 590 nm. Also, the λem in series [3] (1×10^−5 mol L^−1, excitation wavelength λex=500 nm) came to 610 nm.
On to `CSCC[C@H](NC(=O)[C@H](CC(C)C)NC(=O)[C@H](Cc1c[nH]cn1)NC(=O)CNC(=O)[C@@H](NC(=O)[C@H](C)NC(=O)[C@H](Cc1c[nH]c2ccccc12)NC(=O)[C@H](CCC(N)=O)NC(=O)CCOCCOCCOCCOCCNC(=O)CON=Cc1ccc(C(=O)NCCCN(CCCNC(=O)c2ccc(C=NOCC(=O)NCCOCCOCCOCCOCCC(=O)N[C@@H](CCC(N)=O)C(=O)N[C@@H](Cc3c[nH]c4ccccc34)C(=O)N[C@@H](C)C(=O)N[C@H](C(=O)NCC(=O)N[C@@H](Cc3c[nH]cn3)C(=O)N[C@@H](CC(C)C)C(=O)N[C@@H](CCSC)C(N)=O)C(C)C)cc2)CC(=O)N[C@H](CSC2CC(=O)N(CCN3C(=O)CC(SC[C@H](NC(=O)[C@H](CCCC[n+]4c(C)cc(/C=C/c5ccc(N(C)C)cc5)cc4C)NC(=O)CC[C@H](C(=O)O)N4CCN(CC(=O)O)CCN(CC(=O)O)CC4)C(N)=O)C3=O)C2=O)C(=O)NCCOCCOCC(N)=O)cc1)C(C)C)C(N)=O` (stereo partly shown) [Compound 7], for which, in series [1], the logD is -2 ± 0.01. The half-maximal inhibitory concentration (IC50) in series [2] is 16.5 ± 0.25 nM. For the same molecule, in series [3], the “Log ϵ” value worked out at 4.23 M ^−1 cm^−1, the Stokes shift is 140 nm and the λ max is given as 460 nm. For the same molecule, the λem in series [3] (setting [4]) was found to be 600 nm.
